For 167 variants, self-cleavage results are on record in the RNAGym collection of RNA variant scans (doi:10.7554/elife.90254).

First the molecules themselves.
B1: LINE1-mini (parent)
chain: GGCAGAGCUCAACACAGCGUGGCAAAGUGGCUGUGGCUAGACUGCC

The variants in the data set derive from B1. Briefly: self-cleavage, relative activity (ratio to wild type); higher = more cleavage; in vitro, sequencing; the parent is a self-cleaving ribozyme.
Consider U9G U43C, for which the self-cleavage came to 0.04.

For U9G U43A, the self-cleavage stood at 0.07.

Take C10A U38G: the self-cleavage was 0.05.

In the case of C10A U38A, the self-cleavage was determined as 0.15.

Take C10A U38C: the self-cleavage was 0.16.

Turning to U9C C13A, the self-cleavage turned out to be 0.05.

In the case of U9C C13G, the self-cleavage worked out at 0.04.

Consider U9C C13U, for which the self-cleavage was 0.03.

As for U9C C10U, the self-cleavage stood at 0.04.

For the variant U9C C10G, the self-cleavage was 0.03.

With U9C C10A, the self-cleavage was 0.03.

For the variant C10G A12C, the self-cleavage came to 0.03.

Regarding C10G A12G, the self-cleavage came out at 0.03.

U9C A14G: the self-cleavage came to 0.03.

On to U9C A14U, for which the self-cleavage came out at 0.07.

Turning to U9C A14C, the self-cleavage was 0.02.

For the variant U9C U20A, the self-cleavage worked out at 0.04.

Consider U9C U20C, for which the self-cleavage is 0.02.

On to U9C U20G, for which the self-cleavage is 0.03.

For the variant C10A C37G, the self-cleavage is 0.01.

For C10A C37U, the self-cleavage is 0.01.

Turning to C10A C37A, the self-cleavage stood at 0.01.

For the variant U9G G21A, the self-cleavage was 0.13.

On to U9G G21U, for which the self-cleavage came out at 0.06.

For U9G G21C, the self-cleavage was found to be 0.08.

For U9C G21A, the self-cleavage is 0.04.

Take U9C G21C: the self-cleavage is 0.06.

On to U9C G21U, for which the self-cleavage is 0.04.

Take U9G U32G: the self-cleavage turned out to be 0.05.

In the case of U9G U32A, the self-cleavage was 0.12.

Consider U9G U32C, for which the self-cleavage was 0.05.

In the case of U9C G27U, the self-cleavage amounted to 0.04.

Regarding U9C G27C, the self-cleavage was determined as 0.03.

As for U9C G27A, the self-cleavage was 0.03.

C10A C15A: the self-cleavage amounted to 0.04.

Take C10A C15G: the self-cleavage came to 0.04.

C10A C15U: the self-cleavage amounted to 0.08.

Consider U9G A16U, for which the self-cleavage is 0.14.

Regarding U9G A16G, the self-cleavage was determined as 0.07.

With U9G A16C, the self-cleavage is 0.03.

As to U9G U38A, the self-cleavage is 0.06.

Turning to U9G U38C, the self-cleavage amounted to 0.09.

U9G U38G: the self-cleavage amounted to 0.01.

Take U9C U32G: the self-cleavage was determined as 0.03.

In the case of U9C U32A, the self-cleavage turned out to be 0.02.

Regarding U9C U32C, the self-cleavage was 0.04.

In the case of U9G, the self-cleavage worked out at 0.15.

U9C C42G: the self-cleavage came out at 0.03.

In the case of U9C C42A, the self-cleavage is 0.03.

Consider U9C C42U, for which the self-cleavage was 0.04.

Regarding U9G C37G, the self-cleavage is 0.05.

Consider U9G C37U, for which the self-cleavage worked out at 0.15.

Regarding U9G C37A, the self-cleavage worked out at 0.22.

For the variant C10A A14U, the self-cleavage amounted to 0.05.

For C10A A14G, the self-cleavage turned out to be 0.06.

On to C10A A14C, for which the self-cleavage was 0.02.

C10A C23U: the self-cleavage was determined as 0.06.

For the variant C10A C23G, the self-cleavage stood at 0.07.

For C10A C23A, the self-cleavage came to 0.06.

Turning to U9C C23A, the self-cleavage was determined as 0.02.

For U9C C23U, the self-cleavage is 0.02.

Consider U9C C23G, for which the self-cleavage worked out at 0.03.

Regarding C10A A16G, the self-cleavage was found to be 0.07.

On to C10A A16U, for which the self-cleavage stood at 0.05.

In the case of C10A A16C, the self-cleavage is 0.04.

Regarding C10A C31U, the self-cleavage is 0.04.

As for C10A C31A, the self-cleavage amounted to 0.03.

Regarding C10A C31G, the self-cleavage was determined as 0.03.

C10A U34C: the self-cleavage came to 0.04.

As for C10A U34G, the self-cleavage turned out to be 0.04.

Regarding C10A U34A, the self-cleavage turned out to be 0.05.

In the case of C10A G33A, the self-cleavage was 0.04.

In the case of C10A G33C, the self-cleavage was found to be 0.03.

Take C10A G33U: the self-cleavage amounted to 0.05.

On to U9C U34C, for which the self-cleavage stood at 0.04.

In the case of U9C U34A, the self-cleavage turned out to be 0.04.

For the variant U9C U34G, the self-cleavage is 0.03.

For U9C C18U, the self-cleavage amounted to 0.01.

Take U9C C18A: the self-cleavage came out at 0.03.

Turning to U9C C18G, the self-cleavage was found to be 0.03.

For U9C A11U, the self-cleavage amounted to 0.03.

For the variant U9G A41G, the self-cleavage worked out at 0.08.

Turning to U9G A41U, the self-cleavage was 0.14.

As for U9G A41C, the self-cleavage turned out to be 0.04.

In the case of U9G A26G, the self-cleavage was 0.04.

Consider U9G A26U, for which the self-cleavage stood at 0.15.

Consider U9G A26C, for which the self-cleavage is 0.21.

Turning to U9C G35A, the self-cleavage was 0.06.

Regarding U9C G35C, the self-cleavage came out at 0.04.

For U9C G35U, the self-cleavage was 0.03.

Take U9G U34C: the self-cleavage came to 0.06.

Consider U9G U34A, for which the self-cleavage stood at 0.04.

As to U9G U34G, the self-cleavage amounted to 0.05.

Take U9G G30A: the self-cleavage was 0.09.

As to U9G G30C, the self-cleavage was determined as 0.06.

Turning to U9G G30U, the self-cleavage came out at 0.1.

As for C10A A26C, the self-cleavage came out at 0.04.

For C10A A26G, the self-cleavage was 0.12.

As for C10A A26U, the self-cleavage is 0.06.

As for C10A G44U, the self-cleavage was found to be 0.03.

For C10A G44C, the self-cleavage stood at 0.07.

As for C10A G44A, the self-cleavage worked out at 0.07.

With U9C U38G, the self-cleavage was determined as 0.04.

Take U9C U38C: the self-cleavage came to 0.07.

For U9C U38A, the self-cleavage amounted to 0.03.

Turning to C10A G29U, the self-cleavage is 0.04.

Regarding C10A G29A, the self-cleavage worked out at 0.06.

Regarding C10A G29C, the self-cleavage came out at 0.04.

For the variant C10G A11U, the self-cleavage stood at 0.04.

C10G A11G: the self-cleavage is 0.03.

Turning to C10G A11C, the self-cleavage worked out at 0.02.

Take C10A A24C: the self-cleavage amounted to 0.03.

For C10A A24U, the self-cleavage came out at 0.05.

As to C10A A24G, the self-cleavage amounted to 0.06.

On to U9C A26C, for which the self-cleavage amounted to 0.03.

For U9C A26U, the self-cleavage turned out to be 0.11.

Regarding U9C A26G, the self-cleavage is 0.05.

As to U9C A16G, the self-cleavage amounted to 0.03.

Consider U9C A16U, for which the self-cleavage was determined as 0.04.

As to U9C A16C, the self-cleavage stood at 0.02.

On to C10A G22C, for which the self-cleavage was 0.03.

On to C10A G22U, for which the self-cleavage was 0.07.

For the variant C10A G22A, the self-cleavage was found to be 0.05.

U9G G40A: the self-cleavage amounted to 0.08.

For U9G G40C, the self-cleavage worked out at 0.08.

Turning to U9G G40U, the self-cleavage was 0.08.

Consider C10A A41G, for which the self-cleavage came out at 0.03.

As for C10A A41U, the self-cleavage came to 0.02.

On to C10A A41C, for which the self-cleavage turned out to be 0.04.

For U9C A25G, the self-cleavage was 0.04.

On to U9C A25U, for which the self-cleavage worked out at 0.04.

For U9C A25C, the self-cleavage stood at 0.03.

As for U9C U43G, the self-cleavage amounted to 0.01.

With U9C U43C, the self-cleavage is 0.02.

For the variant U9C U43A, the self-cleavage was 0.03.

U9C C15U: the self-cleavage is 0.04.

For U9C C15G, the self-cleavage is 0.04.

As to U9C C15A, the self-cleavage was 0.03.

Take U9G C23U: the self-cleavage was 0.07.

In the case of U9G C23A, the self-cleavage is 0.11.

Regarding U9G C23G, the self-cleavage came out at 0.15.

Regarding U9G A12U, the self-cleavage amounted to 0.14.

Turning to U9G A12C, the self-cleavage worked out at 0.02.

In the case of U9G A12G, the self-cleavage is 0.02.

Regarding C10A U28C, the self-cleavage worked out at 0.07.

As for C10A U28A, the self-cleavage amounted to 0.04.

C10A U28G: the self-cleavage worked out at 0.06.

As to U9G U28A, the self-cleavage came out at 0.11.

As to U9G U28C, the self-cleavage came to 0.04.

Regarding U9G U28G, the self-cleavage came to 0.06.

For U9G G36A, the self-cleavage worked out at 0.61.

Take U9G G36C: the self-cleavage is 0.04.

Turning to U9G G36U, the self-cleavage came to 0.12.

Regarding U9C G19C, the self-cleavage came to 0.05.

U9C G19A: the self-cleavage was 0.04.

For U9C G19U, the self-cleavage worked out at 0.08.

C10A U20C: the self-cleavage amounted to 0.06.

Turning to C10A U20A, the self-cleavage was 0.05.

Regarding C10A U20G, the self-cleavage worked out at 0.03.

Turning to C10A A11C, the self-cleavage is 0.02.

Regarding C10A A11G, the self-cleavage was 0.03.

On to C10A A11U, for which the self-cleavage turned out to be 0.03.

Turning to C10A C13A, the self-cleavage stood at 0.03.

With C10A C13U, the self-cleavage stood at 0.04.

For C10A C13G, the self-cleavage was 0.03.

With U9G G35A, the self-cleavage is 0.11.

On to U9G G35C, for which the self-cleavage is 0.03.
